Source: publication PMC7794343, “Structures of human dual oxidase 1 complex in low-calcium and high-calcium states” (Nature Communications, 2021)

B1: human dual oxidase 1 (hDUOX1), matured protein 20-1551 with N-terminal GFP tag (enzyme, UniProt Q9NRD9-1 20-1551, looked up)
chain: GAQNPISWEVQRFDGWYNNLMEHRWGSKGSRLQRLVPASYADGVYQPLGEPHLPNPRDLSNTISRGPAGLASLRNRTVLGVFFGYHVLSDLVSVETPGCPAEFLNIRIPPGDPMFDPDQRGDVVLPFQRSRWDPETGRSPSNPRDPANQVTGWLDGSAIYGSSHSWSDALRSFSRGQLASGPDPAFPRDSQNPLLMWAAPDPATGQNGPRGLYAFGAERGNREPFLQALGLLWFRYHNLWAQRLARQHPDWEDEELFQHARKRVIATYQNIAVYEWLPSFLQKTLPEYTGYRPFLDPSISSEFVAASEQFLSTMVPPGVYMRNASCHFQGVINRNSSVSRALRVCNSYWSREHPSLQSAEDVDALLLGMASQIAEREDHVLVEDVRDFWPGPLKFSRTDHLASCLQRGRDLGLPSYTKARAALGLSPITRWQDINPALSRSNDTVLEATAALYNQDLSWLELLPGGLLESHRDPGPLFSTIVLEQFVRLRDGDRYWFENTRNGLFSKKEIEEIRNTTLQDVLVAVINIDPSALQPNVFVWHKGDPCPQPRQLSTEGLPACAPSVVRDYFEGSGFGFGVTIGTLCCFPLVSLLSAWIVARLRMRNFKRLQGQDRQSIVSEKLVGGMEALEWQGHKEPCRPVLVYLQPGQIRVVDGRLTVLRTIQLQPPQKVNFVLSSNRGRRTLLLKIPKEYDLVLLFNLEEERQALVENLRGALKESGLSIQEWELREQELMRAAVTREQRRHLLETFFRHLFSQVLDINQADAGTLPLDSSQKVREALTCELSRAEFAESLGLKPQDMFVESMFSLADKDGNGYLSFREFLDILVVFMKGSPEEKSRLMFRMYDFDGNGLISKDEFIRMLRSFIEISNNCLSKAQLAEVVESMFRESGFQDKEELTWEDFHFMLRDHNSELRFTQLCVKGVEVPEVIKDLCRRASYISQDMICPSPRVSARCSRSDIETELTPQRLQCPMDTDPPQEIRRRFGKKVTSFQPLLFTEAHREKFQRSCLHQTVQQFKRFIENYRRHIGCVAVFYAIAGGLFLERAYYYAFAAHHTGITDTTRVGIILSRGTAASISFMFSYILLTMCRNLITFLRETFLNRYVPFDAAVDFHRLIASTAIVLTVLHSVGHVVNVYLFSISPLSVLSCLFPGLFHDDGSEFPQKYYWWFFQTVPGLTGVVLLLILAIMYVFASHHFRRRSFRGFWLTHHLYILLYVLLIIHGSFALIQLPRFHIFFLVPAIIYGGDKLVSLSRKKVEISVVKAELLPSGVTHLRFQRPQGFEYKSGQWVRIACLALGTTEYHPFTLTSAPHEDTLSLHIRAAGPWTTRLREIYSAPTGDRCARYPKLYLDGPFGEGHQEWHKFEVSVLVGGGIGVTPFASILKDLVFKSSVSCQVFCKKIYFIWVTRTQRQFEWLADIIREVEENDHQDLVSVHIYITQLAEKFDLRTTMLYICERHFQKVLNRSLFTGLRSITHFGRPPFEPFFNSLQEVHPQVRKIGVFSCGPPGMTKNVEKACQLINRQDRTHFSHHYENF
modifications: N-linked glycosylation
notes: human DUOX1, matured protein residues 20-1551; Secretion guided by a rat FSHbeta signal peptide before the GFP tag; GFP-tagged protein is 219 kDa; also called GFP-tagged hDUOX1; WT hDOUX1; source: HEK293F, BacMam baculovirus infection; digitonin-solubilised membrane for FSEC; purified with hDUOXA1 (Streptactin beads, peptidisc with NSPr, Superose 6 increase) for cryo-EM; not shown: GFP, …
B2: human dual oxidase maturation factor 1 (hDUOXA1), as in the purified peptidisc complex (natural protein)
chain: MATLGHTFPFYAGPKPTFPMDTTLASIIMIFLTALATFIVILPGIRGKTRLFWLLRVVTSLFIGAAILAVNFSSEWSVGQVSTNTSYKAFSSEWISADIGLQVGLGGVNITLTGTPVQQLNETINYNEEFTWRLGENYAEEYAKALEKGLPDPVLYLAEKFTPRSPCGLYRQYRLAGHYTSAMLWVAFLCWLLANVMLSMPVLVYGGYMLLATGIFQLLALLFFSMATSLTSPCPLHLGASVLHTHHGPAFWITLTTGLLCVLLGLAMAVAHRMQPHRLKAFFNQSVDEDPMLEWSPEEGGLLSPRYRSMADSPKSQDIPLSEASSTKAY
modifications: N-linked glycosylation on N109
notes: human DUOXA1; cDNA cloned into a non-tagged BacMam vector or one with C-terminal MBP-mScarlet tag; the non-tagged one is surmised here; source: HEK293F, BacMam baculovirus infection, co-expressed with hDUOX1 from a bicistronic vector; purified with hDUOX1 (Streptactin beads, peptidisc, Superose 6 increase)

Experiments:
[1] = target: the molecule itself; experiment: SEC; fluorescence size-exclusion chromatography (FSEC) of GFP-tagged hDUOX1 co-expressed with hDUOXA1; membrane solubilised in TBS + 1% digitonin, 1 h, 4 °C
[2] = target: B1; experiment: cryo-EM structure; hDUOX1-hDUOXA1 complex in peptidisc (NSPr); 2.5 mM EGTA (low calcium) or 0.5 mM free calcium (high calcium); 100 uM FAD, 500 uM NADPH, 0.5 mM fluorinated octyl-maltoside; conditions: both partners purified

Binder | binding result [1] | stoichiometry N [2]
B1 | binds | 
B2 |  | 1 hDUOXA1 per hDUOX1 (2:2)
